experiment: yeast display, Sf9 membrane polyspecificity reagent, FACS + sequencing; frameworks hold sequencing errors
Outline: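 A nanobody's polyreactivity label depends on the gate it was sorted from. Yeast display cells were stained with 10% biotinylated, detergent-solubilized Sf9 membrane reagent for 1 hour at 4 °C, enriched on streptavidin microbeads and sorted by FACS. The low and high (top ~1%) gates were set on anti-HA fluorescence for expression and streptavidin fluorescence for reagent binding.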

Sequence	polyreactivity (PSR sort gate)
QVHLVESGGCLVQAGGSLRLSCAASGITFGYYAMGWYRQAPGKERELVAAITTRGGSTSDADSVKGRFTISRDNAKNTVYFQMNSLKPEDNAVYYCAARWRQRKSVRYGQHGYDYWGQGTQVTVSS	high polyreactivity
QVHLVESGGCLVQAGGTLRLSCAASGFTYKWYAMGWYRQAPGKERELVATITIGGRTNYADSVKGRFTISRDNAKNTVYLQMNSLKTEETAVYYCATYFVGLRLSDYDYWGQGTQVTVSS	low polyreactivity
QVHLVESGGGFFQAGGSLRLSCAASVITFPLYAMGWYRPAPGKERELVSAISRNGGRTYYADSVKGRFTISRDNAKNTVYLQMNSLKPEDTAVYYCAKVSRGSVSSPRDDYWGQGTQVNVSS	high polyreactivity
QVHLVESGGGLDQAGGSLRLSCAASGSIFPHNAMVWYIQAPGKERELVASITSRCGITYYADSVKGRFTISRDNAKNTVYLQMNRLKPEDTAVYYCAARNNVEYLTIYKPYSFGSDSWGQGTQVTVSS	low polyreactivity
QVHLVESGGGLDQAGGSLRLSSAASGSIFDKYAMVWYRQAPGKERELVAAITSGGRTYYADSVKGRFTISRDNAKNTVYLQMNSLKPEDTAVYYCAAGARRSYYPSQYYYWGQGTQVTVSS	low polyreactivity
QVHLVESGGGLLQAGGSLRLSCAASGITFSRNVMGWYIQAPGKERELVAAISTSGGSTYYADSVKGRFTISRDNAKNTVYLQMNSLKPEDTAGYYCAKDITVTYPGLDYDYWGQGTQVTVSS	low polyreactivity
QVHLVESGGGLVEAVGSLRLSCAASGRIFARYAMGCYRQAPGKERQLVATITRVGSTNYADSVKRPFTISRDNAKTTVYLQMNSLKPEDTEGFYCNADIRRNGGYAHEYWVQGTQVTVSS	low polyreactivity
QVHLVESGGGLVHAGGSLRLSCAASGSTFYPYAMGWYRQAPGKERELVAAISISGTTYYADSVKGRFTISRDNAKNTVYLQMNCLKPEDTAVYYCAKRAWVRRYPGRVGYNMYYWGQGTQVSVSS	high polyreactivity
QVHLVESGGGLVHAGGSLRLSCAASGSTFYYYAMGWYRQAPGKERELVAAIRLRGGGTYADSVKGRFTISRDNAKNTFYLQMNSLKPEDTAVYYCAARVWYHGTQFGYWGQGTQVTVSS	high polyreactivity
QVHLVESGGGLVQAAGSLRLSCAASGITFAPYAMGWYRQAPGKERELVAGINTGGSTYYADSVKGRFTISRDKEKNTVYLQMNSLKPEDTAFYYCATDSYPADQDIPGCDYWGQGTQVTVSS	low polyreactivity
QVHLVESGGGLVQAAGSLRLSCAASGRIFSYNAMGWYRPAPGKERELVAAISSDGSTYYADSVKGRFTISRDNAKNTVYLQMNSLKPEDTAVYYCAASQVVWFDYTTAQVGSYKVNYWGQGTQVSVSS	low polyreactivity
QVHLVESGGGLVQAGGILRLSCAASGFIFLQYTMGWYRPAPGKERELVAGISWSGDSTYYADSVKGRFTISRDNAKNTVYLQMNSLKPEDTAVYYCNADWRAAGSDFAFGNPQLYDDWGQGSQVTVSS	low polyreactivity
QVHLVESGGGLVQAGGRLRLSCAASGRTFFWYAMGWYRQAPGKEREFVAAITWRTGSTYYADSVKGRFTLSRDNAKNTVYLQMNSLKPEDTAVYYCAGEFPWSFATYYSWGQGTQVTVSS	high polyreactivity
QVHLVESGGGLVQAGGRLRLSCAASGSIFPGYAMGWYRQAPGKERELVAAITFSGGSTYYADSLKGRFTISRDNAKNTVYLQMNSLKPEDTAVYYCAAPGWYGGYPSYYEYGYWGQGTQVTVSS	low polyreactivity
QVHLVESGGGLVQAGGSLLLSCAASGRILGPNAMGWYIQAPGKERELVAAINSGGSTNYADSVKGRFTISRDNAKNTVYLQMNSLKAEDTAVYYCNAVYGVYDFNYWGQGTQVTVSS	low polyreactivity
QVHLVESGGGLVQAGGSLRISCSASGPSYTHYAMGWYRQAPGKERELVASICDGGGTHYADSVKGRFTISRDNAKNTVYLEMKSLKPEDTAVYYCATYRYPTRRYDYWGQGTQVPVSS	low polyreactivity

Sequence	polyreactivity (PSR sort gate)
QVHLVESGGGLVQAGGSLRLCCAASGSILVSYAMGWYRQAAGKERELVAAITYTGGNTYYADSGKGRFTISRDNAKNTVYVQLNSQKPEDTAVYYCNAGWTQTSVTFDYWGQGTQVTVSS	low polyreactivity
QVHLVESGGGLVQAGGSLRLICAASGISFLAYAMGCYRHAPRKERELVAAISTDGGSTYYADSVKGRFTISRDNAKNTVYLQMNSLKPVYTAVYYCAAKQRYVRTRGMDYWGQGTQVTVSS	high polyreactivity
QVHLVESGGGLVQAGGSLRLICAASGSIFPRNAMGWYRQAPGKERELVARINSGGTTKYADSVKGRFTISRDNAKNTVFLQMNSLKPEDTAVYYCNADTYILDPLRKSYGYDYWGQGTQVTVSS	low polyreactivity
QVHLVESGGGLVQAGGSLRLICAASGYIFPYYSMGWYRQAPGKERELVAGITTDGSSTYYADSVKGRFTISRDNAKKTVYLQMNSLKPEDTAVYYCYGYPGYTWGWYDFWGQGSQVTVSS	low polyreactivity
QVHLVESGGGLVQAGGSLRLICAAYRRTLGGNAMGWYRQAPGKERELVAPITHSASTYADSVKGRFTISRDNAKNTVYLQMNSLKPEDTAVYYCNAPDPSDQHGDYWGQGTQVTVSS	low polyreactivity
QVHLVESGGGLVQAGGSLRLRCAASGLTSTNNAMGWYRQAPGKERELVAAITSGSTTNYADSVKGRFTISRDNAKNTVYLQMNSLNPEDTAVYYCAAQYGVWWRGYYYPEYDYWGEGTQVTVSS	low polyreactivity
QVHLVESGGGLVQAGGSLRLRCAASGSISGRYAMGWYRQAPGKERELVAAISWIGGSTYYADSVKGRFTISRDNAKNTVYLQMNSLKPEDTAVYYCNVSIDTRTHPLLVVFYGYDYWGQGTQVSVSS	low polyreactivity
QVHLVESGGGLVQAGGSLRLRCAASGSTFGYYAMGWYRQAPGKERELVAAIRGSVTRTYYADSVKGRFTISRDNAKNTVYLEMNSLKPEDTAVYYCAAGSRLGWGSEYWGQGTQVTVSS	high polyreactivity
QVHLVESGGGLVQAGGSLRLSCAASALTDGRYAMGWYRQAPGKERELVADIRYRAGSTNYADSVKGRFTISRDNAKNTVYLQMNSLKPEDTAVYYCAKGHPNDFGYWGQGTQVTVSS	high polyreactivity
QVHLVESGGGLVQAGGSLRLSCAASARIFRYYTMGWNRQAPGKERELVAAISVSGGSTYYADSVKGRFTSSRDNAKNTVYILMNSLKPEDTAVYYCAAPFVWSSYRGYDYWGQGSQVTVSS	high polyreactivity
QVHLVESGGGLVQAGGSLRLSCAASGAMGWYRQAPGKERELVAAISSGNTNYADSVKGRFTISRDNAKNTVYLQMNSLKPEDTAVYYCAAEQPYGQKNTGLGVIDLDYWGQGTQVTVSS	low polyreactivity
QVHLVESGGGLVQAGGSLRLSCAASGFIFLHYAMGWYRQAPGKERELVAAINKSGGSTYYADSVKGRFTSSRDNAMYTDYLQMNSLKPEDTAVYYCNAVYYWFIGDYWGQGTQVTVSS	high polyreactivity
QVHLVESGGGLVQAGGSLRLSCAASGFIFSLYAMGWYRQAPGKERELVAAISKRGGSTNYADSVKGRFTISRDNAKNTVYLQMNSLKPEDTAVYYWAKARPGFLYDHWGQGTQVTVSS	high polyreactivity
QVHLVESGGGLVQAGGSLRLSCAASGFIFYYYAMGWYRQAPGKERELVASISAIGGGTYYADSVNGRFTISRDNAKNTVYLQMNSLKPEDTAVYYCDPDGDGWWWSYVDRYDYWGQGTQVTVSS	low polyreactivity
QVHLVESGGGLVQAGGSLRLSCAASGFILPYYAMGWYRQAPGKERELVAAISRSGGGTYYADSVKGRFTISRDNAKNTVYLQMNSLKPEDTAVYYCAADYSAYEYEYWGQGTQVTVSS	high polyreactivity
